For this data set, the target named is TcpK (Clostridium perfringens (plasmid pCW3), UniProt Q1PLI2 1-102). In words: fluorescence polarization; SPR: 10 mM HEPES pH 7.4, 200 mM NaCl, 3 mM EDTA, 0.05% Tween 20, 20 C; […]. The note with it: protein: recombinant; tags: N-terminal His6-TEV, cleaved; chain copies: 2; label: 5' Alexa488; blunt. (In general: Polarisation of emitted light reports the rotation of a fluorescent probe.)

Results on one molecule are retold here after article PMC6137059.

B1: oriTmin23 Alexa488 (dsDNA)
DNA 1: AAGGAACTTTACAGGGAACTTTA
DNA 2: TAAAGTTCCCTGTAAAGTTCCTT
The term Kd denotes a measure of binding affinity in units of concentration. With B1, the Kd came out at 590 nM.
